Measurements published in PMC9887876.

Key:
[1] = biological target: putative baseplate wedge protein GP075 of Pseudomonas phage K8, His-tagged (Pseudomonas phage K8); test: SEC-MALS; 100 ul of protein solution (0.15-4.05 mg/ml) on a WTC-015S5 column; 100 mM NaCl, 50 mM Tris-HCl, 1 mM EDTA, 0.02% NaN3, pH 7.4; 0.4 ml/min; BSA as control; self-polymerization degree
[2] = biological target: GP075m, variant of the putative baseplate wedge protein GP075 with the substitution T239A (phage K8-T239A), His-tagged (Pseudomonas phage K8-T239A (derivative of phage K8)); test: as above

Substance	molar mass [1]	molar mass [2]
putative baseplate wedge protein GP075 of Pseudomonas phage K8, His-tagged (natural protein)	81.2	
GP075m, variant of the putative baseplate wedge protein GP075 with the substitution T239A (phage K8-T239A), His-tagged (natural protein)		185
